In US20230338424A1 (LENTIGEN TECHNOLOGY, published 2023):

T1: recombinant human CD123-Fc (human, UniProt P26951 19-305, limits assumed)
T1 construct: Treated as one molecule; also called CD123-Fc peptide (Novoprotein); recombinant IL3R-alpha Fc-tagged; not shown: Fc tag
T1 sequence (looked up): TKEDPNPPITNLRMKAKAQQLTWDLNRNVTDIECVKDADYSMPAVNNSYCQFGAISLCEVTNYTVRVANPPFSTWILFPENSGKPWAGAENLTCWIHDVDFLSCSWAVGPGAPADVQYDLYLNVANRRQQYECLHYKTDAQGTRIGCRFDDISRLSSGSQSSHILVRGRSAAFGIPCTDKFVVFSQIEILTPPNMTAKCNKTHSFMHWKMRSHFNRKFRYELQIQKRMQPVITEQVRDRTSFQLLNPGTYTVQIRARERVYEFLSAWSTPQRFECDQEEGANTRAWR

B1: CAR D0132 CD123 MB42-E02 CD8 BBz (other)
chain: QVQLVQSGAEVKKPGASVKVSCKASGYTFTSYGISWVRQAPGQGLEWMGWISAYNGNTNYAQKLQGRVTMTTDTSTSTAYMELRSLRSDDTAVYYCARGAYYDFWSGYSWFDPWGQGTLVTVSSGGGGSGGGGSGGGGSQSVLTQPPSVSVAPGQTARIPCGGNNIGSKGVHWYQQKSGQAPVMVVYDDSDRPSGIPERFSGSNSGNTATLTISRVEAGDEADYYCQVWDSSGDLVLFGGGTKLTVLAAATTTPAPRPPTPAPTIASQPLSLRPEACRPAAGGAVHTRGLDFACDIYIWAPLAGTCGVLLLSLVITLYCKRGRKKLLYIFKQPFMRPVQTTQEEDGCSCRFPEEEEGGCELRVKFSRSADAPAYQQGQNQLYNELNLGRREEYDVLDKRRGRDPEMGGKPRRKNPQEGLYNELQKDKMAEAYSEIGMKGERRRGKGHDGLYQGLSTATKDTYDALHMQALPPR
notes: Chimeric antigen receptor on transduced human primary T cells; also called EF-1a-CD123 MB42-E02 CD8 BBz
B2: CAR D0133 CD123 MB42-E12 CD8 BBz (other)
chain: QVQLVQSGAEVKKPGASVKVSCKASGYTFTSYGISWVRQAPGQGLEWMGWISAYNGNTNYAQKLQGRVTMTTDTSTSTAYMELRSLRSDDTAVYYCARGAYYDFWSSYSWFDPWGQGTLVTVSSGGGGSGGGGSGGGGSSYVLTQPPSVSVAPGKTARITCGGNNIGSKSVHWYQQKPGQAPVLVVYDDSDRPSGIPERFSGSNSGNTATLTISRVEAGDEADYYCQVWDSSSDHVVFGGGTKLTVLAAATTTPAPRPPTPAPTIASQPLSLRPEACRPAAGGAVHTRGLDFACDIYIWAPLAGTCGVLLLSLVITLYCKRGRKKLLYIFKQPFMRPVQTTQEEDGCSCRFPEEEEGGCELRVKFSRSADAPAYQQGQNQLYNELNLGRREEYDVLDKRRGRDPEMGGKPRRKNPQEGLYNELQKDKMAEAYSEIGMKGERRRGKGHDGLYQGLSTATKDTYDALHMQALPPR
notes: Chimeric antigen receptor on transduced human primary T cells; also called EF-1a-CD123 MB42-E12 CD8 BBz
B3: CAR D0131 CD123 MB42-D03 CD8 BBz (other)
chain: QVQLVQSGAEVKKPGASVKVSCKASGYTFTSYGISWVRQAPGQGLEWMGWISAYNGNTNYAQKLQGRVTMTTDTSTSTAYMELRSLRSDDTAVYYCARGAYYDFWSSYSWFDPWGQGTLVTVSSGGGGSGGGGSGGGGSSYVLTQPPSVSVAPGKTARITCGGNSIGSKSVQWYQQKPGQAPVLVIYDDSDRPSGIPERFSGSNSGNTATLTISRVEAGDEADYYCQVWDSSSDVVFGGGTKLTVLAAATTTPAPRPPTPAPTIASQPLSLRPEACRPAAGGAVHTRGLDFACDIYIWAPLAGTCGVLLLSLVITLYCKRGRKKLLYIFKQPFMRPVQTTQEEDGCSCRFPEEEEGGCELRVKFSRSADAPAYQQGQNQLYNELNLGRREEYDVLDKRRGRDPEMGGKPRRKNPQEGLYNELQKDKMAEAYSEIGMKGERRRGKGHDGLYQGLSTATKDTYDALHMQALPPR
notes: Chimeric antigen receptor on transduced human primary T cells; also called EF-1a-CD123 MB42-D03 CD8 BBz; CAR123 D0131
B4: CAR D0134 CD123 MB44-H01 CD8 BBz (other)
chain: QVQLVQSGAEVKKPGSSVKVSCKASGGTFSSYAISWVRQAPGQGLEWMGGIIPIFGTANYAQRFQGRVTITADESTSTAYMELSSLRSEDTAVYYCARGLGTSYYYYYMDVWGKGTTVTVSSGGGGSGGGGSGGGGSQSVLTQPPSASGSPGQSVTISCTGTSSDVGGYNYVSWYQQHPGKAPKLMIYEVSNRPSGVSNRFSGSKSGNTASLTISGLQAEDEADYYCSSYTSSSTPVVFGGGTKLTVLAAATTTPAPRPPTPAPTIASQPLSLRPEACRPAAGGAVHTRGLDFACDIYIWAPLAGTCGVLLLSLVITLYCKRGRKKLLYIFKQPFMRPVQTTQEEDGCSCRFPEEEEGGCELRVKFSRSADAPAYQQGQNQLYNELNLGRREEYDVLDKRRGRDPEMGGKPRRKNPQEGLYNELQKDKMAEAYSEIGMKGERRRGKGHDGLYQGLSTATKDTYDALHMQALPPR
notes: Chimeric antigen receptor on transduced human primary T cells; also called EF-1a-CD123 MB44 -H01CD8 BBz
B5: CAR D0130 CD123 MB40-H08 CD8 BBz (other)
chain: QVQLVQSGAEVKKPGSSVKVSCKASGGTFSSYAISWVRQAPGQGLEWMGGIIPIFGTANYAQKFQGRVTITADESTSTAYMELSSLRSEDTAVYYCARNEWYSYYYYYMGVWGKGTTVTVSSGGGGSGGGGSGGGGSQSALTQPASVSGSPGQSITISCTGTSSDVGGYNYVSWYQQHPGKAPKLMIYEVSNRPSGVSNRFSGSKSGNTASLTISGLQAEDEADYYCSSYTSSSTLVVFGGGTKLTVLAAATTTPAPRPPTPAPTIASQPLSLRPEACRPAAGGAVHTRGLDFACDIYIWAPLAGTCGVLLLSLVITLYCKRGRKKLLYIFKQPFMRPVQTTQEEDGCSCRFPEEEEGGCELRVKFSRSADAPAYQQGQNQLYNELNLGRREEYDVLDKRRGRDPEMGGKPRRKNPQEGLYNELQKDKMAEAYSEIGMKGERRRGKGHDGLYQGLSTATKDTYDALHMQALPPR
notes: Chimeric antigen receptor on transduced human primary T cells; also called EF-1a-CD123 MB40-H08 CD8 BBz
B6: CAR LTG2078 CD123 M12306 CD8 BBz (other)
chain: EVQLVQSGSELKKPGASVKVSCKASGGTFSSYAISWVRQAPGQGLEWMGGIIPIFGTANYAQKFQGRVTITADESTSTAYMELSSLRSEDTAVYYCASTARRGWDTAGPLDYWGQGTLVTVSSGGGGSGGGGSGGGGSDIQMTQSPSSLSASVGDRVTIACRASQTISRYLNWYQQKPGKAPKLLIYAASSLQSGVSSRFSGSGSGTEFTLTISSLQPEDFATYFCQQTYSPPITFGQGTRLEIKAAATTTPAPRPPTPAPTIASQPLSLRPEACRPAAGGAVHTRGLDFACDIYIWAPLAGTCGVLLLSLVITLYCKRGRKKLLYIFKQPFMRPVQTTQEEDGCSCRFPEEEEGGCELRVKFSRSADAPAYQQGQNQLYNELNLGRREEYDVLDKRRGRDPEMGGKPRRKNPQEGLYNELQKDKMAEAYSEIGMKGERRRGKGHDGLYQGLSTATKDTYDALHMQALPPR
notes: Control chimeric antigen receptor on transduced human primary T cells; Leader (residues 1-22) left out; also called EF-1a CD123 CD8 BBz

Each binder was assayed against T1, recombinant human CD123-Fc (assay: flow cytometry, CAR T cells stained with recombinant IL3R-alpha Fc-tagged, anti-Fc AF647).
Procedure: Half million CAR T cells were washed two times in cold AutoMACS buffer supplemented with 0.5% bovine serum albumin (Miltenyi Biotec, Bergisch Gladbach, Germany) and stained with 2.5 ug/ml CD123-Fc peptide (Novoprotein, Summit, NJ), followed by anti Fc-AF647 conjugate (Jackson ImmunoResearch, West Grove, PA). The 7-Aminoactinomycin D staining (7-AAD, BD Biosciences, San Jose, CA) was added to exclude dead cells. Non-transduced cells (UTD) were used as a negative control. Cells were washed twice with AutoMACS buffer supplemented with 0.5% bovine serum albumin, resuspended in 200 ul staining buffer and acquired by flow cytometry. Flow cytometric analysis was performed on a MACSQuant® 10 Analyzer (Miltenyi Biotec), and data plots were generated using FlowJo software (Ashland, OR).
Lentiviral vectors encoding the CD123 CAR constructs were used for CAR transduction into human primary T cells at multiplicity of infection (MOI) of 40. CAR surface expression of transduced T cells by flow cytometry using recombinant IL3R-alpha Fc-tagged, followed by staining with anti-Fc Alexa Flour 647.

binding result | Binder
binds | B1
binds | B2
binds | B3
binds | B4
binds | B5
binds | B6
